{"source": "the supplement of paper PMC10724198", "note": "± gives the standard deviation of the averaged measurements.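 Note: PSI is a weighted mean of sequencing reads over stability bins, variants kept only with over 10 reads, mCherry proximal and sfGFP distal, peptide attached via GGGS linker.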", "data": [{"system": "Saccharomyces cerevisiae", "assay": "protein stability index of tFT-peptide fusion (C-terminal peptide) (PSI (0-1 scale)); higher = more stable (slower turnover)", "details": "genetic background: wild type; temperature: 30 C", "procedure": "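Multiplexed protein stability (MPS) profiling in S. cerevisiae. Random 12-aa peptides (tFT-X12 library) are fused to the C-terminus of a sfGFP-mCherry tandem fluorescent timer, after mCherry and a GGGS linker. Cells are FACS-sorted into 8 mCherry/sfGFP bins and deep-sequenced. The protein stability index (PSI) is the read-weighted bin average, scaled from 0 (unstable) to 1 (stable). Only peptides with >10 reads are reported; cells were grown at 30 °C in SC-His with glucose.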", "values": [{"sequence": "DLCSPWGVDGVK", "protein stability index": "0.696 ± 0.00079"}, {"sequence": "DLILECRYEVGV", "protein stability index": "0.667 ± 0.053"}, {"sequence": "DLLAVPALTLHL", "protein stability index": "0.677 ± 0.14"}, {"sequence": "DLLYGLAMSLSN", "protein stability index": "0.704 ± 0.012"}, {"sequence": "DLQKKKEILSQK", "protein stability index": "0.707 ± 0.029"}, {"sequence": "DLSFVLAPFVSP", "protein stability index": "0.6683 ± 0.0038"}, {"sequence": "DLSVSDGCVAFG", "protein stability index": "0.64 ± 0.048"}, {"sequence": "DLTRALQAGHDR", "protein stability index": "0.695 ± 0.039"}, {"sequence": "DLVNTVCTVLDN", "protein stability index": "0.6836 ± 0.0039"}, {"sequence": "DLWTRGAVHRKA", "protein stability index": "0.6756 ± 0.0061"}, {"sequence": "DMDLAVTRHIRS", "protein stability index": "0.718 ± 0.1"}, {"sequence": "DPAHPRPFDCPL", "protein stability index": "0.709 ± 0.013"}, {"sequence": "DPLIILLSSVKL", "protein stability index": "0.718 ± 0.0099"}, {"sequence": "DPPPLPPAHSAS", "protein stability index": "0.658 ± 0.034"}, {"sequence": "DPVGFSEMYLRV", "protein stability index": "0.705 ± 0.0078"}, {"sequence": "DQLETTSAPLPG", "protein stability index": "0.711 ± 0.044"}, {"sequence": "DQRRKKKPIKGN", "protein stability index": "0.736 ± 0.12"}, {"sequence": "DQRRWLWGGILK", "protein stability index": "0.707 ± 0.018"}, {"sequence": "DRFLPPALVMYI", "protein stability index": "0.566 ± 0.038"}, {"sequence": "DRGWPHTYNTIL", "protein stability index": "0.639 ± 0.1"}, {"sequence": "DRHLNRPRVKKR", "protein stability index": "0.758 ± 0.076"}, {"sequence": "DRPDLVLAGVCG", "protein stability index": "0.756 ± 0.06"}, {"sequence": "DRRETASGVSVR", "protein stability index": "0.682 ± 0.025"}, {"sequence": "DRRRVIIKENKA", "protein stability index": "0.675 ± 0.024"}, {"sequence": "DRTNIIGVIDDL", "protein stability index": "0.753 ± 0.05"}, {"sequence": "DRVGGCESRAGR", "protein stability index": "0.651 ± 0.04"}, {"sequence": "DSFGSERYEPCK", "protein stability index": "0.622 ± 0.0097"}, {"sequence": "DSFLFVPREVAD", "protein stability index": "0.687 ± 0.013"}, {"sequence": "DSRFMLYIHSSR", "protein stability index": "0.7132 ± 0.0038"}, {"sequence": "DSSGATGLLYML", "protein stability index": "0.746 ± 0.022"}, {"sequence": "DSSYVYHFRCVS", "protein stability index": "0.62055 ± 0.00019"}, {"sequence": "DTDDARGVWGSV", "protein stability index": "0.7151 ± 0.0058"}, {"sequence": "DTFLGSLFIFIR", "protein stability index": "0.522 ± 0.011"}, {"sequence": "DTSENSVKFTKV", "protein stability index": "0.733 ± 0.075"}, {"sequence": "DTVTGNWGVGLG", "protein stability index": "0.657 ± 0.02"}, {"sequence": "DTWRADKRGMKV", "protein stability index": "0.662 ± 0.052"}, {"sequence": "DVAEAGPRPPPT", "protein stability index": "0.755 ± 0.091"}, {"sequence": "DVFCFWCVSGFV", "protein stability index": "0.651 ± 0.082"}, {"sequence": "DVGISICLLHGA", "protein stability index": "0.6664 ± 0.002"}, {"sequence": "DVGIVPGVFWWV", "protein stability index": "0.738 ± 0.054"}, {"sequence": "DVISRSTRIMGE", "protein stability index": "0.617 ± 0.018"}, {"sequence": "DVLESPVLYPTN", "protein stability index": "0.70948 ± 7.6e-05"}, {"sequence": "DVSSRDLCWLVC", "protein stability index": "0.6422 ± 0.0052"}, {"sequence": "DVVFRLAFTDFC", "protein stability index": "0.693 ± 0.021"}, {"sequence": "DVVGRGRGPVRL", "protein stability index": "0.802 ± 0.033"}, {"sequence": "DVYFHTRSCGTP", "protein stability index": "0.688 ± 0.016"}, {"sequence": "DVYLVGLGVWSS", "protein stability index": "0.668 ± 0.035"}, {"sequence": "DWVLGRRDTRKP", "protein stability index": "0.752 ± 0.025"}, {"sequence": "DWYSGVTYGPCS", "protein stability index": "0.78 ± 0.062"}, {"sequence": "DYRTLGPAPDKS", "protein stability index": "0.74 ± 0.035"}, {"sequence": "EAGRRVGARRVG", "protein stability index": "0.689 ± 0.059"}, {"sequence": "EAKKKKRRDRKE", "protein stability index": "0.621 ± 0.029"}, {"sequence": "EALKCFADAYTC", "protein stability index": "0.661 ± 0.063"}, {"sequence": "EAQWRGVRHHSR", "protein stability index": "0.641 ± 0.036"}, {"sequence": "EARRGTAGGQKK", "protein stability index": "0.626 ± 0.039"}, {"sequence": "EASSRITFGLII", "protein stability index": "0.698 ± 0.041"}, {"sequence": "ECGAGRVYGDPW", "protein stability index": "0.652 ± 0.063"}, {"sequence": "EEGAGLLWSAVG", "protein stability index": "0.641 ± 0.014"}, {"sequence": "EEGVARYVERWV", "protein stability index": "0.675 ± 0.0075"}, {"sequence": "EERGESRGWRVK", "protein stability index": "0.604 ± 0.045"}, {"sequence": "EERHAEPRNCMF", "protein stability index": "0.773 ± 0.015"}, {"sequence": "EEVAISFFFLSL", "protein stability index": "0.468 ± 0.055"}, {"sequence": "EEWGSLEWTAGR", "protein stability index": "0.778 ± 0.019"}, {"sequence": "EEYFFVNLFFAS", "protein stability index": "0.752 ± 0.085"}, {"sequence": "EGACPFLSFRGF", "protein stability index": "0.658 ± 0.024"}, {"sequence": "EGGESRGKGYRS", "protein stability index": "0.691 ± 0.025"}, {"sequence": "EGGGAGGLMRPE", "protein stability index": "0.65 ± 0.016"}, {"sequence": "EGGGGGAGDARR", "protein stability index": "0.685 ± 0.017"}, {"sequence": "EGGGGVEGAAWG", "protein stability index": "0.694 ± 0.022"}, {"sequence": "EGGGWGRYDGFG", "protein stability index": "0.69378 ± 9.6e-05"}, {"sequence": "EGGPRTGGRGSR", "protein stability index": "0.67 ± 0.035"}, {"sequence": "EGHREARGGMAR", "protein stability index": "0.673 ± 0.018"}, {"sequence": "EGINVEICISLL", "protein stability index": "0.573 ± 0.083"}, {"sequence": "EGMENECDLRIK", "protein stability index": "0.74 ± 0.066"}, {"sequence": "EGPPYSRYKGGS", "protein stability index": "0.645 ± 0.11"}, {"sequence": "EGRGQRGARAAQ", "protein stability index": "0.7181 ± 0.0034"}, {"sequence": "EGVSNGCAILLF", "protein stability index": "0.673 ± 0.029"}, {"sequence": "EGWPGGRGGAGL", "protein stability index": "0.614 ± 0.032"}, {"sequence": "EIGWEGLEGRGG", "protein stability index": "0.756 ± 0.11"}, {"sequence": "EIGWTEGGECVG", "protein stability index": "0.632 ± 0.051"}, {"sequence": "EKGAEGDHGEVR", "protein stability index": "0.678 ± 0.017"}, {"sequence": "EKGRVGLKIIKE", "protein stability index": "0.695 ± 0.038"}, {"sequence": "EKGWFDLGGCQV", "protein stability index": "0.723 ± 0.035"}, {"sequence": "EKHLKKEIQIKK", "protein stability index": "0.76 ± 0.07"}, {"sequence": "EKIRGFPGEIGE", "protein stability index": "0.694 ± 0.022"}, {"sequence": "EKKKEKHKDQEK", "protein stability index": "0.692 ± 0.055"}, {"sequence": "EKKKKENKVKRF", "protein stability index": "0.664 ± 0.013"}, {"sequence": "EKKKKNKNQEKQ", "protein stability index": "0.671 ± 0.044"}, {"sequence": "EKKKNKTQLKTK", "protein stability index": "0.667 ± 0.024"}, {"sequence": "EKKNGKEKEKER", "protein stability index": "0.6647 ± 0.0062"}, {"sequence": "EKKRQKKQKTGK", "protein stability index": "0.67136 ± 0.00051"}, {"sequence": "EKKTNEKNSYNL", "protein stability index": "0.659 ± 0.016"}, {"sequence": "EKPIPFCSSVAS", "protein stability index": "0.713 ± 0.063"}, {"sequence": "EKVWTLTGLSHL", "protein stability index": "0.722 ± 0.04"}, {"sequence": "EKYGKKIRRKNR", "protein stability index": "0.766 ± 0.11"}, {"sequence": "ELELDRTEWVTI", "protein stability index": "0.799 ± 0.05"}, {"sequence": "ELFGSGERRVVV", "protein stability index": "0.68 ± 0.014"}, {"sequence": "ELGVGVLDRGCL", "protein stability index": "0.608 ± 0.22"}]}]}
